We go through one substance from patent US12612465B2, “Formulations comprising PCSK9 specific monoclonal antibodies” (Amgen Inc., priority 2012, dated 2026).

This assay deals with T1, human PCSK9 (Homo sapiens, UniProt Q8NBP7, E620G/G670E/V474I).
T1 construct: made in house
Kind of assay: Serum lipids in C57BL/6 mice expressing human PCSK9 by AAV. In kind it is in vivo, mouse. The conditions noted are these: 30 mg/kg IV bolus. As to the method:
Briefly, 120 C57BL/6 mice expressing human PCSK9 were generated by infection with an engineered adeno associated virus (AAV) coding for human PCSK9, resulting in elevated levels of circulating low density lipoprotein cholesterol (LDL-C). Serum cholesterol analysis was performed using the Cobas Integra 400 plus chemistry analyzer (Roche Diagnostics, Indianapolis, Ind.). Animals were randomized into treatment groups with similar levels of non-HDL-C (LDL-C and VLDL-C), HDL-C and TC. On treatment day 0 (T=0) a subset of mice was euthanized and serum collected to establish that day's baseline levels. Remaining mice were then administered 11F1, 8A3 or anti-keyhole limpethemocyanin (KLH) IgG2 control antibody at 30 mg/kg. via tail vein injection. At days 1 through 5 following injection, subsets of mice were euthanized and whole blood was collected from the vena cava and allowed to coagulate for 30 minutes at room temperature. Following centrifugation at 12,000 rpm with a bench top centrifuge for 10 minutes, serum was collected. Serum cholesterol analysis was performed using the Cobas Integra 400 plus chemistry analyzer.
All cholesterol results were expressed as the mean±standard error of the mean. All pharmacokinetic data were expressed as the mean±standard deviation. The p value of 0.05, determined by 1-way ANOVA was used as a threshold to determine statistical significance between the anti-KLH IgG2 control antibody injected animals and those dosed with anti-PCSK9 antibody at the same time point.

T1 sequence (Q8NBP7 153-692 V474I/E620G/G670E): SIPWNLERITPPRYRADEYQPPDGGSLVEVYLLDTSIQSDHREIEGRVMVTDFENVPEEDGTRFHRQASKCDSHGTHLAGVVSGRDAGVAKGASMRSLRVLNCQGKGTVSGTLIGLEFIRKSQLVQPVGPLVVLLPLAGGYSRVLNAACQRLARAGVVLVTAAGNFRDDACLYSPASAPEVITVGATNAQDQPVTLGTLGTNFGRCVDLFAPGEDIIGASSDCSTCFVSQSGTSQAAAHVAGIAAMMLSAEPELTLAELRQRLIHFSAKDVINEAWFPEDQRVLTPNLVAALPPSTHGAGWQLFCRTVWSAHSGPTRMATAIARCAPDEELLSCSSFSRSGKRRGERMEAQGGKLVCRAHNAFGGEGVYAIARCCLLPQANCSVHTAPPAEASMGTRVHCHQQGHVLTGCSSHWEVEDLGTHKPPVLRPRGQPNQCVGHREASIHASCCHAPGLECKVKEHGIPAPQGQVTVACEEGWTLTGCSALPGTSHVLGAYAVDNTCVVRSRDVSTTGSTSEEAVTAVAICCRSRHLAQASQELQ

On to “11F1: anti-PCSK9 ABP, light/heavy variable region SEQ ID NO 465/463 [Antibody 11F1]”, for which the “lowering of HDL-C vs control animals” value (any time point) is “No significant lowering of HDL-C”. The “lowering of TC vs control animals” value (day 4 only) is 22%. Also, the “maximum lowering of serum non-HDL-C vs control animals” value (significant at days 1, 2 and 4 post-injection) amounted to 59%.
